Data as given in paper PMC2847587.

Assays:
Assay in all cases: immunodepletion
[1] = target: FAAP24 (human (endogenous in HeLa)) (UniProt Q9BTP7)
[2] = target: MHF1 (FANCM-associated Histone Fold protein 1) (human (endogenous in HeLa)) (UniProt Q8N2Z9)
[3] = target: FANCA (human (endogenous in HeLa)) (UniProt O15360)
[4] = target: MHF2 (FANCM-associated Histone Fold protein 2) (human (endogenous in HeLa)) (UniProt A8MT69); conditions: remark: other sources report otherwise
MHF2 (FANCM-associated Histone Fold protein 2) (human (endogenous in HeLa)), sequence (A8MT69 whole entry): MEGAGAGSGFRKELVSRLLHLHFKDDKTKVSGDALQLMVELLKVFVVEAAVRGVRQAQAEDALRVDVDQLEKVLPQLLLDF

FANCA (human (endogenous in HeLa)), sequence (O15360 whole entry): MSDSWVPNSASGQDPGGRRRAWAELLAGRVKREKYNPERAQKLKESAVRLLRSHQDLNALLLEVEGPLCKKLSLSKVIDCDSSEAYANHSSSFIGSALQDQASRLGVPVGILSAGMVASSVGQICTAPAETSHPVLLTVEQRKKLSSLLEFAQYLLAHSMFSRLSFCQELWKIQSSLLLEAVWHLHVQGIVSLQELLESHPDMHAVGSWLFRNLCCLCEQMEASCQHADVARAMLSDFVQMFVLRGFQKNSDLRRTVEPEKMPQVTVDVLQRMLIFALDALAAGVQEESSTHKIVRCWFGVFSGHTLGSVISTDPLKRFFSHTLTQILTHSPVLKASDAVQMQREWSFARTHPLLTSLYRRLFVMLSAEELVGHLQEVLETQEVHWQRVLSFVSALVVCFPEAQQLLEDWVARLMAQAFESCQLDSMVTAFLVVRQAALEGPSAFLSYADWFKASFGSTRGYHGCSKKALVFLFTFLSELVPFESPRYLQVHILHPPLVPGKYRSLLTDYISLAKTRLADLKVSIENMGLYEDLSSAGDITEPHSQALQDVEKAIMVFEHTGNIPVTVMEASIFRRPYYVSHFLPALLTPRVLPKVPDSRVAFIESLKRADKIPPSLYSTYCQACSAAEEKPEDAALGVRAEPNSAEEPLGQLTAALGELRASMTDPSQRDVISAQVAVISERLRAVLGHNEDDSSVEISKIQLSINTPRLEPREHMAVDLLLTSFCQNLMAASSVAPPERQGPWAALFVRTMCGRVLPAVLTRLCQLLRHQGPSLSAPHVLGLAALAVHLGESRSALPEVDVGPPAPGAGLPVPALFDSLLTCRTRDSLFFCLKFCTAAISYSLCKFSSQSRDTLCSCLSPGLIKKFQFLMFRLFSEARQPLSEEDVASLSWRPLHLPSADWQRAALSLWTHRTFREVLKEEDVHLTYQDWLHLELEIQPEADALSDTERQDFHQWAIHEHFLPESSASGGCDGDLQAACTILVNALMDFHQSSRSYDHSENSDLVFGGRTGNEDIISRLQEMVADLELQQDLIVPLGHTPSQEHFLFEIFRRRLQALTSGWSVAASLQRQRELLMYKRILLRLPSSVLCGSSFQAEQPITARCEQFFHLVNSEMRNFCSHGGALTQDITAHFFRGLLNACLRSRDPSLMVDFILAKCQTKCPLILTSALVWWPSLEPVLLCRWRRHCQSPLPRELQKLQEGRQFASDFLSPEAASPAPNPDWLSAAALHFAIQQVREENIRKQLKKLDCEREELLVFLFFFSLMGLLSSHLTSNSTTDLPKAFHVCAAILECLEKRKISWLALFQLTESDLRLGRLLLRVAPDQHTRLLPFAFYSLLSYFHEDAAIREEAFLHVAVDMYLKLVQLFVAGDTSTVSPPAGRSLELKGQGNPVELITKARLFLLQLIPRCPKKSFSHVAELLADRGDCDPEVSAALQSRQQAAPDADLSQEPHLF
MHF1 (FANCM-associated Histone Fold protein 1) (human (endogenous in HeLa)), sequence (Q8N2Z9 whole entry): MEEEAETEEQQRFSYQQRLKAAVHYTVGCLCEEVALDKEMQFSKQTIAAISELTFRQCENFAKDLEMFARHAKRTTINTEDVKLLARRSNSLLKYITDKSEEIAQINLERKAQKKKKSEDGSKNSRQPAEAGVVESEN
FAAP24 (human (endogenous in HeLa)), sequence (Q9BTP7 whole entry): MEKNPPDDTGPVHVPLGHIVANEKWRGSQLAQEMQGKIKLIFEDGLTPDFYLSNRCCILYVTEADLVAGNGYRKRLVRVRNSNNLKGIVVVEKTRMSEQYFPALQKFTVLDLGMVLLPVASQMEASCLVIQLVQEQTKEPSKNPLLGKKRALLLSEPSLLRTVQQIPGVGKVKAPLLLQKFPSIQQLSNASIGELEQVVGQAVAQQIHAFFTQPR

Substance: FANCM, Q8IYD8 1-2048
- percent co-depleted [1]: 70%
- percent co-depleted [2]: 85%
- percent co-depleted [3]: < 30%
- percent co-depleted [4]: 85%
